Laboratory results published in patent US5707800, “Retinoic acid response elements and assays employing same” (The Salk Institute for Biological Studies).

B1: CRBPII-RXRE (dsDNA)
DNA 1: GCTGTCACAGGTCACAGGTCACAGGTCACAGTTCA
DNA 2: TGAACTGTGACCTGTGACCTGTGACCTGTGACAGC

What was measured:
RAR (subtype not stated) = experiment: cell_activity; conditions: CV-1 cells; RAR blocks RXR transactivation at equal expression vector amount; no RA activation by RAR itself
[1] = target: RXR alpha (retinoid X receptor alpha) (Homo sapiens, UniProt P19793 P19793:1-462); experiment: cell_activity; CAT induction by retinoic acid in F9 cells, CRBPII promoter reporter pCRBPII-CAT; conditions: tags: expression plasmid; chain copies: 4; label: 32P
Chain of RXR alpha (retinoid X receptor alpha) (P19793 whole entry, one chain of several): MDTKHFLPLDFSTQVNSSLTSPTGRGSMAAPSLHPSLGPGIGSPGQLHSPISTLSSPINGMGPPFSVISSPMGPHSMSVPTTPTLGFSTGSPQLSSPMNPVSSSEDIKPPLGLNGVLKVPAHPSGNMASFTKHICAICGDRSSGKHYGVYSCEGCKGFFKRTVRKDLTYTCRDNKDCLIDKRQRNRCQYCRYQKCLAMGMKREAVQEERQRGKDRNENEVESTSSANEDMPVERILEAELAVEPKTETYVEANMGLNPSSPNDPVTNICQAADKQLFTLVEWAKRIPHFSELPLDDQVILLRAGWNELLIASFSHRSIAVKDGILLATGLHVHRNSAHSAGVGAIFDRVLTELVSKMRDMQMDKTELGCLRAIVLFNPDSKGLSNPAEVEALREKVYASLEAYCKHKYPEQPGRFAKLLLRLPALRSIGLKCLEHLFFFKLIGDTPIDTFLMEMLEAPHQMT
Procedure: Chem. 262:2425–2467 (1987)], was introduced into a plasmid which would regulate expression of the reporter, bacterial chloramphenicol acetyl transferase (see FIG. 1). The resultant reporter plasmid, pCRBPII-CAT, was tested for retinoic acid (RA) responsiveness after transfection into mouse embryonal teratocarcinoma F9 cells. F9 cells endogenously express high amounts of retinoic acid receptor (RAR), and can efficiently transactivate (>100-fold) a reporter plasmid containing the well characterized RA-inducible promoter of the RARβ gene [see de The et al., in Nature 343:177–180 (1990) and Sucov, et al., in Proc. Natl. Acad. Sci. U.S.A. 87:5392–5396 (1990)]. However, pCRBPII-CAT conferred no basal or RA-inducible CAT activity in these cells. To eliminate the possibility that regulation of the CRBPII promoter requires an augmented concentration of RAR, as is the case for the laminin retinoic acid response element [RARE; see Vasias, et al., in Proc. Natl Acad. Sci. U.S.A. 86:9099–9103 (1989], or that its regulation is isoform specific, expression vectors bearing all three subtypes of RAR were each separately cotransfected with pCRBPII-CAT into F9 cells.
To assess the exact sequences within the CRBPII promoter that function as an RXR response element (RXRE), a series of 5'-deletion mutants were constructed starting with the parent reporter plasmid pCRBPII-CAT (see FIG. 2). […]

Molecule | activity (% suppression of RXR activation) (RAR (subtype not stated)) | activity [1]
GCTGTCACAGGTCACAGGTCACAGGTCACAGTTCA (double strand) [CRBPII-RXRE] | 90 | –
B1 | – | 100 fold
